According to patent publication US20230235013A1 (MABSOLVE, published 2023):

target: T1, Histidine-tagged recombinant human FcγRI (CD64) (human, UniProt P12314 16-288); assay: SPR, culture supernatant, captured His-FcγRI;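 note: biacore T200 SPR at 25 °C, anti-His capture, supernatants of HEK293 cells expressing IgG1 Fc variants injected 1 min, reference-subtracted response read 55 s after injection start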
T1 construct: bought; also called Sino Biological Cat. No. 12056-H08H
Procedure: Binding analysis was carried out by surface plasmon resonance at 25° C. using a Biacore® T200 instrument with Biacore® T200 control software. The running buffer (HBS-EP+) consisted of 0.01 M HEPES pH 7.4, containing 0.15 M NaCl, 3 mM EDTA, and 0.05% v/v Surfactant P20. The sample compartment was held at 4° C. during analysis.
The cell was activated by treatment with EDC/NHS for 7 min. The antibody was diluted to 5 μg/mL in 10 mM sodium acetate pH 4.5 and injected for 7 min at 5 μL/min. The flow cell was deactivated by injection of 1M ethanolamine for 7 min. This process was repeated in the absence of anti-his antibody on a separate flow cell to generate a reference surface. […] Samples of undiluted culture supernatants from HEK293 cells expressing human IgG1 antibodies comprising variant Fc regions were injected for 1 min at 30 μL/min and allowed to disassociate for 2 min. […] Therefore, regeneration between cycles was not necessary. Responses on the test flow cell (coupled with anti-His antibody) were analysed after subtraction of responses on the control flow cell (sham-coupled). The relative binding response was measured 55 sec after the beginning of sample injection. To account for any possible drift in response due to slow dissociation of the His-tagged FcγRI, the binding response was measured relative to a baseline interpolated between report points located before sample injection and at the end of dissociation.
The whole experiment was repeated three times. Due to the relatively crude nature of the samples (variable refractive index, presence of culture media and other cellular products), some sensorgrams were unsatisfactory and were eliminated from analysis. The mean and standard deviation of binding response was then calculated for each sample.

Binder | Mean binding response
anti-CD20 human IgG1 L234N/L235R/G236R (antibody, copies: 2 + 2) heavy: QVQLQQPGAELVKPGASVKMSCKASGYTFTSYNMHWVKQTPGRGLEWIGAIYPGNGDTSYNQKFKGKATLTADKSSSTAYMQLSSLTSEDSAVYYCARSTYYGGDWYFNVWGAGTTVTVSSASTKGPSVFPLAPSSKSTSGGTAALGCLVKDYFPEPVTVSWNSGALTSGVHTFPAVLQSSGLYSLSSVVTVPSSSLGTQTYICNVNHKPSNTKVDKKVEPKSCDKTHTCPPCPAPENRRGPSVFLFPPKPKDTLMISRTPEVTCVVVDVSHEDPEVKFNWYVDGVEVHNAKTKPREEQYNSTYRVVSVLTVLHQDWLNGKEYKCKVSNKALPAPIEKTISKAKGQPREPQVYTLPPSRDELTKNQVSLTCLVKGFYPSDIAVEWESNGQPENNYKTTPPVLDSDGSFFLYSKLTVDKSRWQQGNVFSCSVMHEALHNHYTQKSLSLSPGK light: QIVLSQSPAILSASPGEKVTMTCRASSSVSYIHWFQQKPGSSPKPWIYATSNLASGVPVRFSGSGSGTSYSLTISRVEAEDAATYYCQQWTSNPPTFGGGTKLEIKRTVAAPSVFIFPPSDEQLKSGTASVVCLLNNFYPREAKVQWKVDNALQSGNSQESVTEQDSKDSTYSLSSTLTLSKADYEKHKVYACEVTHQGLSSPVTKSFNRGEC | 30.4 RU
anti-CD20 human IgG1 L234N/L235T/G236R (antibody, copies: 2 + 2) heavy: QVQLQQPGAELVKPGASVKMSCKASGYTFTSYNMHWVKQTPGRGLEWIGAIYPGNGDTSYNQKFKGKATLTADKSSSTAYMQLSSLTSEDSAVYYCARSTYYGGDWYFNVWGAGTTVTVSSASTKGPSVFPLAPSSKSTSGGTAALGCLVKDYFPEPVTVSWNSGALTSGVHTFPAVLQSSGLYSLSSVVTVPSSSLGTQTYICNVNHKPSNTKVDKKVEPKSCDKTHTCPPCPAPENTRGPSVFLFPPKPKDTLMISRTPEVTCVVVDVSHEDPEVKFNWYVDGVEVHNAKTKPREEQYNSTYRVVSVLTVLHQDWLNGKEYKCKVSNKALPAPIEKTISKAKGQPREPQVYTLPPSRDELTKNQVSLTCLVKGFYPSDIAVEWESNGQPENNYKTTPPVLDSDGSFFLYSKLTVDKSRWQQGNVFSCSVMHEALHNHYTQKSLSLSPGK light: QIVLSQSPAILSASPGEKVTMTCRASSSVSYIHWFQQKPGSSPKPWIYATSNLASGVPVRFSGSGSGTSYSLTISRVEAEDAATYYCQQWTSNPPTFGGGTKLEIKRTVAAPSVFIFPPSDEQLKSGTASVVCLLNNFYPREAKVQWKVDNALQSGNSQESVTEQDSKDSTYSLSSTLTLSKADYEKHKVYACEVTHQGLSSPVTKSFNRGEC | 8.6 RU
anti-CD20 human IgG1 L234N/L235Q/G236R (antibody, copies: 2 + 2) heavy: QVQLQQPGAELVKPGASVKMSCKASGYTFTSYNMHWVKQTPGRGLEWIGAIYPGNGDTSYNQKFKGKATLTADKSSSTAYMQLSSLTSEDSAVYYCARSTYYGGDWYFNVWGAGTTVTVSSASTKGPSVFPLAPSSKSTSGGTAALGCLVKDYFPEPVTVSWNSGALTSGVHTFPAVLQSSGLYSLSSVVTVPSSSLGTQTYICNVNHKPSNTKVDKKVEPKSCDKTHTCPPCPAPENQRGPSVFLFPPKPKDTLMISRTPEVTCVVVDVSHEDPEVKFNWYVDGVEVHNAKTKPREEQYNSTYRVVSVLTVLHQDWLNGKEYKCKVSNKALPAPIEKTISKAKGQPREPQVYTLPPSRDELTKNQVSLTCLVKGFYPSDIAVEWESNGQPENNYKTTPPVLDSDGSFFLYSKLTVDKSRWQQGNVFSCSVMHEALHNHYTQKSLSLSPGK light: QIVLSQSPAILSASPGEKVTMTCRASSSVSYIHWFQQKPGSSPKPWIYATSNLASGVPVRFSGSGSGTSYSLTISRVEAEDAATYYCQQWTSNPPTFGGGTKLEIKRTVAAPSVFIFPPSDEQLKSGTASVVCLLNNFYPREAKVQWKVDNALQSGNSQESVTEQDSKDSTYSLSSTLTLSKADYEKHKVYACEVTHQGLSSPVTKSFNRGEC | 4.5 RU
anti-CD20 human IgG1 L234N/L235S/G236R (antibody, copies: 2 + 2) heavy: QVQLQQPGAELVKPGASVKMSCKASGYTFTSYNMHWVKQTPGRGLEWIGAIYPGNGDTSYNQKFKGKATLTADKSSSTAYMQLSSLTSEDSAVYYCARSTYYGGDWYFNVWGAGTTVTVSSASTKGPSVFPLAPSSKSTSGGTAALGCLVKDYFPEPVTVSWNSGALTSGVHTFPAVLQSSGLYSLSSVVTVPSSSLGTQTYICNVNHKPSNTKVDKKVEPKSCDKTHTCPPCPAPENSRGPSVFLFPPKPKDTLMISRTPEVTCVVVDVSHEDPEVKFNWYVDGVEVHNAKTKPREEQYNSTYRVVSVLTVLHQDWLNGKEYKCKVSNKALPAPIEKTISKAKGQPREPQVYTLPPSRDELTKNQVSLTCLVKGFYPSDIAVEWESNGQPENNYKTTPPVLDSDGSFFLYSKLTVDKSRWQQGNVFSCSVMHEALHNHYTQKSLSLSPGK light: QIVLSQSPAILSASPGEKVTMTCRASSSVSYIHWFQQKPGSSPKPWIYATSNLASGVPVRFSGSGSGTSYSLTISRVEAEDAATYYCQQWTSNPPTFGGGTKLEIKRTVAAPSVFIFPPSDEQLKSGTASVVCLLNNFYPREAKVQWKVDNALQSGNSQESVTEQDSKDSTYSLSSTLTLSKADYEKHKVYACEVTHQGLSSPVTKSFNRGEC | 18.4 RU
anti-CD20 human IgG1 L234N/L235K/G236R (antibody, also called 1-98; copies: 2 + 2) heavy: QVQLQQPGAELVKPGASVKMSCKASGYTFTSYNMHWVKQTPGRGLEWIGAIYPGNGDTSYNQKFKGKATLTADKSSSTAYMQLSSLTSEDSAVYYCARSTYYGGDWYFNVWGAGTTVTVSSASTKGPSVFPLAPSSKSTSGGTAALGCLVKDYFPEPVTVSWNSGALTSGVHTFPAVLQSSGLYSLSSVVTVPSSSLGTQTYICNVNHKPSNTKVDKKVEPKSCDKTHTCPPCPAPENKRGPSVFLFPPKPKDTLMISRTPEVTCVVVDVSHEDPEVKFNWYVDGVEVHNAKTKPREEQYNSTYRVVSVLTVLHQDWLNGKEYKCKVSNKALPAPIEKTISKAKGQPREPQVYTLPPSRDELTKNQVSLTCLVKGFYPSDIAVEWESNGQPENNYKTTPPVLDSDGSFFLYSKLTVDKSRWQQGNVFSCSVMHEALHNHYTQKSLSLSPGK light: QIVLSQSPAILSASPGEKVTMTCRASSSVSYIHWFQQKPGSSPKPWIYATSNLASGVPVRFSGSGSGTSYSLTISRVEAEDAATYYCQQWTSNPPTFGGGTKLEIKRTVAAPSVFIFPPSDEQLKSGTASVVCLLNNFYPREAKVQWKVDNALQSGNSQESVTEQDSKDSTYSLSSTLTLSKADYEKHKVYACEVTHQGLSSPVTKSFNRGEC | 25 RU

Now from value to binder:

Mean binding response | Binder
14.1 RU | anti-CD20 human IgG1 L234N/L235I/G236R (antibody, also called 1-97; copies: 2 + 2) heavy: QVQLQQPGAELVKPGASVKMSCKASGYTFTSYNMHWVKQTPGRGLEWIGAIYPGNGDTSYNQKFKGKATLTADKSSSTAYMQLSSLTSEDSAVYYCARSTYYGGDWYFNVWGAGTTVTVSSASTKGPSVFPLAPSSKSTSGGTAALGCLVKDYFPEPVTVSWNSGALTSGVHTFPAVLQSSGLYSLSSVVTVPSSSLGTQTYICNVNHKPSNTKVDKKVEPKSCDKTHTCPPCPAPENIRGPSVFLFPPKPKDTLMISRTPEVTCVVVDVSHEDPEVKFNWYVDGVEVHNAKTKPREEQYNSTYRVVSVLTVLHQDWLNGKEYKCKVSNKALPAPIEKTISKAKGQPREPQVYTLPPSRDELTKNQVSLTCLVKGFYPSDIAVEWESNGQPENNYKTTPPVLDSDGSFFLYSKLTVDKSRWQQGNVFSCSVMHEALHNHYTQKSLSLSPGK light: QIVLSQSPAILSASPGEKVTMTCRASSSVSYIHWFQQKPGSSPKPWIYATSNLASGVPVRFSGSGSGTSYSLTISRVEAEDAATYYCQQWTSNPPTFGGGTKLEIKRTVAAPSVFIFPPSDEQLKSGTASVVCLLNNFYPREAKVQWKVDNALQSGNSQESVTEQDSKDSTYSLSSTLTLSKADYEKHKVYACEVTHQGLSSPVTKSFNRGEC
16.9 RU | anti-CD20 human IgG1 L234N/L235N/G236R (antibody, copies: 2 + 2) heavy: QVQLQQPGAELVKPGASVKMSCKASGYTFTSYNMHWVKQTPGRGLEWIGAIYPGNGDTSYNQKFKGKATLTADKSSSTAYMQLSSLTSEDSAVYYCARSTYYGGDWYFNVWGAGTTVTVSSASTKGPSVFPLAPSSKSTSGGTAALGCLVKDYFPEPVTVSWNSGALTSGVHTFPAVLQSSGLYSLSSVVTVPSSSLGTQTYICNVNHKPSNTKVDKKVEPKSCDKTHTCPPCPAPENNRGPSVFLFPPKPKDTLMISRTPEVTCVVVDVSHEDPEVKFNWYVDGVEVHNAKTKPREEQYNSTYRVVSVLTVLHQDWLNGKEYKCKVSNKALPAPIEKTISKAKGQPREPQVYTLPPSRDELTKNQVSLTCLVKGFYPSDIAVEWESNGQPENNYKTTPPVLDSDGSFFLYSKLTVDKSRWQQGNVFSCSVMHEALHNHYTQKSLSLSPGK light: QIVLSQSPAILSASPGEKVTMTCRASSSVSYIHWFQQKPGSSPKPWIYATSNLASGVPVRFSGSGSGTSYSLTISRVEAEDAATYYCQQWTSNPPTFGGGTKLEIKRTVAAPSVFIFPPSDEQLKSGTASVVCLLNNFYPREAKVQWKVDNALQSGNSQESVTEQDSKDSTYSLSSTLTLSKADYEKHKVYACEVTHQGLSSPVTKSFNRGEC
18.9 RU | anti-CD20 human IgG1 L234N/L235V/G236R (antibody, copies: 2 + 2) heavy: QVQLQQPGAELVKPGASVKMSCKASGYTFTSYNMHWVKQTPGRGLEWIGAIYPGNGDTSYNQKFKGKATLTADKSSSTAYMQLSSLTSEDSAVYYCARSTYYGGDWYFNVWGAGTTVTVSSASTKGPSVFPLAPSSKSTSGGTAALGCLVKDYFPEPVTVSWNSGALTSGVHTFPAVLQSSGLYSLSSVVTVPSSSLGTQTYICNVNHKPSNTKVDKKVEPKSCDKTHTCPPCPAPENVRGPSVFLFPPKPKDTLMISRTPEVTCVVVDVSHEDPEVKFNWYVDGVEVHNAKTKPREEQYNSTYRVVSVLTVLHQDWLNGKEYKCKVSNKALPAPIEKTISKAKGQPREPQVYTLPPSRDELTKNQVSLTCLVKGFYPSDIAVEWESNGQPENNYKTTPPVLDSDGSFFLYSKLTVDKSRWQQGNVFSCSVMHEALHNHYTQKSLSLSPGK light: QIVLSQSPAILSASPGEKVTMTCRASSSVSYIHWFQQKPGSSPKPWIYATSNLASGVPVRFSGSGSGTSYSLTISRVEAEDAATYYCQQWTSNPPTFGGGTKLEIKRTVAAPSVFIFPPSDEQLKSGTASVVCLLNNFYPREAKVQWKVDNALQSGNSQESVTEQDSKDSTYSLSSTLTLSKADYEKHKVYACEVTHQGLSSPVTKSFNRGEC
28.8 RU | anti-CD20 human IgG1 L234Q/L235E/G236R (antibody, copies: 2 + 2) heavy: QVQLQQPGAELVKPGASVKMSCKASGYTFTSYNMHWVKQTPGRGLEWIGAIYPGNGDTSYNQKFKGKATLTADKSSSTAYMQLSSLTSEDSAVYYCARSTYYGGDWYFNVWGAGTTVTVSSASTKGPSVFPLAPSSKSTSGGTAALGCLVKDYFPEPVTVSWNSGALTSGVHTFPAVLQSSGLYSLSSVVTVPSSSLGTQTYICNVNHKPSNTKVDKKVEPKSCDKTHTCPPCPAPEQERGPSVFLFPPKPKDTLMISRTPEVTCVVVDVSHEDPEVKFNWYVDGVEVHNAKTKPREEQYNSTYRVVSVLTVLHQDWLNGKEYKCKVSNKALPAPIEKTISKAKGQPREPQVYTLPPSRDELTKNQVSLTCLVKGFYPSDIAVEWESNGQPENNYKTTPPVLDSDGSFFLYSKLTVDKSRWQQGNVFSCSVMHEALHNHYTQKSLSLSPGK light: QIVLSQSPAILSASPGEKVTMTCRASSSVSYIHWFQQKPGSSPKPWIYATSNLASGVPVRFSGSGSGTSYSLTISRVEAEDAATYYCQQWTSNPPTFGGGTKLEIKRTVAAPSVFIFPPSDEQLKSGTASVVCLLNNFYPREAKVQWKVDNALQSGNSQESVTEQDSKDSTYSLSSTLTLSKADYEKHKVYACEVTHQGLSSPVTKSFNRGEC
